Assays:
[1] = target: ASCb (alternative splicing isoform of ASC) (UniProt Q9ULZ3); experiment: real-time NMR
[2] = target: ASC (apoptosis-associated speck-like protein containing a CARD) (UniProt Q9ULZ3); experiment: real-time NMR

Row | k1 (apparent oligomerization rate constant, exponential fit) [1] [h⁻¹] | k1aveCARD (average apparent rate constant k1 of the residues of the CARD) [1] [h⁻¹] | k1avePYD (average apparent rate constant k1 of the residues of the PYD) [1] [h⁻¹] | k2 (apparent oligomerization rate constant, exponential fit) [1] [h⁻¹] | k2aveCARD (average apparent rate constant k2 of the residues of the CARD) [1] [h⁻¹] | k2avePYD (average apparent rate constant k2 of the residues of the PYD) [1] [h⁻¹] | reaction order m of oligomer formation (column of 495 μM) [1] | reaction order m of oligomer formation (column of 704 μM) [1] | k1aveCARD (average apparent rate constant k1 of the residues of the CARD) [2] [h⁻¹] | k1avePYD (average apparent rate constant k1 of the residues of the PYD) [2] [h⁻¹] | k2aveCARD (average apparent rate constant k2 of the residues of the CARD) [2] [h⁻¹] | k2avePYD (average apparent rate constant k2 of the residues of the PYD) [2] [h⁻¹] | Substance
1 | 0.02 | 0.0288 | 0.0269 | 0.02 | 0.0288 | 0.0269 | 3.6 | 3.6 | – | – | – | – | ASCb (alternative splicing isoform of ASC) (from UniProt Q9ULZ3-2 1-176) (natural protein)
2 | – | – | – | – | – | – | – | – | 0.12 | 0.21 | 0.02 | 0.05 | ASC (apoptosis-associated speck-like protein containing a CARD) (from UniProt Q9ULZ3 1-195) (natural protein)

Source: publication PMC8891976
